Measurements taken from patent CN116970083A (SHANGHAI UNICAR THERAPY BIO MEDICINE TECH CO LTD, dated 2023).

B1: 抗Trop2阳性克隆3 (T3), scFv displayed on phage (scFv)
scFv: DIQMTQSPSTLSASVGDRVTITCRASQSISSWLAWYQQKPGKAPKLLIYKASSLESGVPPRFSGSGSGAEFTLTISSLQPDDFATYYCQQYNSYPLTFGGGTKVEVKGGGGSGGGGSGGGGSEVQLVQSGGGLVQPGGSLRLSCEDSGFTFSSYWMSWVRQAPGKGLEWVSSISSSSSYIYYADSVKGRFTISRDNAKNSLYLQMNSLRGEDTAVYYCAREQSSSGFDYWGQGTLVTVSS
notes: Tested as phage supernatant (scFv on M13 phage); also called T3单克隆; T3抗Trop2 scFv
B2: T3单克隆抗体 (T3抗Trop2单克隆抗体) (antibody, human IgG1, kappa, V domains shown)
VH: EVQLVQSGGGLVQPGGSLRLSCEDSGFTFSSYWMSWVRQAPGKGLEWVSSISSSSSYIYYADSVKGRFTISRDNAKNSLYLQMNSLRGEDTAVYYCAREQSSSGFDYWGQGTLVTVSS
VL: DIQMTQSPSTLSASVGDRVTITCRASQSISSWLAWYQQKPGKAPKLLIYKASSLESGVPPRFSGSGSGAEFTLTISSLQPDDFATYYCQQYNSYPLTFGGGTKVEVKR
notes: also called Trop2抗体

Key:
[1] = target: T1, Human TROP-2/TACSTD2 Protein, His Tag (带有His标签的人滋养层细胞表面抗原2(Trop2)胞外段蛋白) (human, UniProt P09758 27-274); assay: phage ELISA, Trop2-His coated at 1ug/ml, anti-M13-HRP, OD450
T1 construct: extracellular domain; Bought protein; also called Trop2-His; Trop2抗原; not shown: His tag
T1 sequence (looked up): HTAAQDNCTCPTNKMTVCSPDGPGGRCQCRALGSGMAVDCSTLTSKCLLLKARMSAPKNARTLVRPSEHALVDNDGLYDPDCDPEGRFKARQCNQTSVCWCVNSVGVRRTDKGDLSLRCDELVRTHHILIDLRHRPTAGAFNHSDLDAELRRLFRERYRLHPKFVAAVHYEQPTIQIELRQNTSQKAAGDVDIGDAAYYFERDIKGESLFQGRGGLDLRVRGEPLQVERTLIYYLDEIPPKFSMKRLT

[2] = target: Trop2 on the surface of tumour cell lines (H1975, MDA-MB-231, Bxpc3, T24, PC-9) (UniProt P09758); assay: flow cytometry on Bxpc3 cells, antibody 5ug/ml, anti-Fc PE; blank cells without antibody MFI 557
[3] = target: Trop2 on the surface of tumour cell lines (H1975, MDA-MB-231, Bxpc3, T24, PC-9) (UniProt P09758); assay: flow cytometry on H1975 cells, antibody 5ug/ml, anti-Fc PE; blank cells without antibody MFI 621
[4] = target: T1, Human TROP-2/TACSTD2 Protein, His Tag …; assay: ELISA, Trop2-His coated at 1ug/ml, antibody diluted 3.3-fold from 5ug/ml, anti-human IgG-Fc HRP
[5] = target: Trop2 on the surface of tumour cell lines (H1975, MDA-MB-231, Bxpc3, T24, PC-9) (UniProt P09758); assay: flow cytometry on MDA-MB-231 cells, antibody 5ug/ml, anti-Fc PE; blank cells without antibody MFI 938

| Binder | binding result [1] | MFI (Median fluorescence intensity) [2] | MFI (Median fluorescence intensity) [3] | binding result [4] | MFI (Median fluorescence intensity) [5] |
| --- | --- | --- | --- | --- | --- |
| B1 | binds | – | – | – | – |
| B2 | – | 174000 | 65600 | binds | 3150 |
